Legend:
[1] = target: GST-tagged FL-importin α1 (mouse) (UniProt P52293); test: pull-down
[2] = target: GST-tagged FL-importin α7 (human) (UniProt O60684); test: pull-down

## MBP-tagged PB2-NLD-K718A (from UniProt P31345 678-759) (domain or fragment)
[1]
  percent of importin α bound to cargo: 20%
[2]
  percent of importin α bound to cargo: 43%

Source: PMC4346194
